± gives the standard deviation of the averaged measurements.
system: Saccharomyces cerevisiae; assay: protein stability index of tFT-peptide fusion (C-terminal peptide) (PSI (0-1 scale)); higher = more stable (slower turnover); settings: genetic background: wild type; temperature: 30 C
Description: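 Multiplexed protein stability (MPS) profiling in S. cerevisiae. Random 12-aa peptides (tFT-X12 library) are fused to the C-terminus of a sfGFP-mCherry tandem fluorescent timer, after mCherry and a GGGS linker. Cells are FACS-sorted into 8 mCherry/sfGFP bins and deep-sequenced. The protein stability index (PSI) is the read-weighted bin average, scaled from 0 (unstable) to 1 (stable). Only peptides with >10 reads are reported; cells were grown at 30 °C in SC-His with glucose.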
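Also: PSI is a weighted mean of sequencing reads over stability bins, variants kept only with over 10 reads, mCherry proximal and sfGFP distal, peptide attached via GGGS linker.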

Sequence | protein stability index
RFRTVFFPLPRC | 0.716 ± 0.062
GQGGRAGRAADV | 0.6532 ± 0.001
SHHKAFFDLVFM | 0.7578 ± 0.0051
GRRRTFGRSRGG | 0.651 ± 0.029
KVAILAIPKCWT | 0.644 ± 0.022
LRFRTVTRSGLR | 0.626 ± 0.048
VFLRSGCSGGGE | 0.799 ± 0.063
QKENTKEKKKRE | 0.686 ± 0.015
PPPPPARPSVPP | 0.673 ± 0.077
PFRPPPRFPPPV | 0.815 ± 0.042
SRRETKTRLAPN | 0.656 ± 0.14
LLLWCRGGLLGS | 0.753 ± 0.024
PPPRRPPSPPSP | 0.729 ± 0.021
SLWPLFVDVVCL | 0.498 ± 0.042
PRPNGLSTDDLE | 0.729 ± 0.056
YRTCLHRGRQML | 0.68188 ± 0.00019
VIVRAFRWNLVR | 0.605 ± 0.029
CFMGCAKRVTLI | 0.561 ± 0.039
HHGCATVTSRAS | 0.654 ± 0.042
PSSTSPQPRLCF | 0.686 ± 0.027
PPPPTPHRSPLL | 0.598 ± 0.029
SLRKVTEKDKRT | 0.677 ± 0.064
LPPPPPSRSRPV | 0.712 ± 0.039
RRTEGKECEGEE | 0.707 ± 0.064
LWVGGKRREVMG | 0.706 ± 0.032

Sequence | protein stability index
SRYRSTSESMKV | 0.667 ± 0.038
GRVKEKCKRRYR | 0.657 ± 0.034
RCPRRASSPTLS | 0.843 ± 0.17
GLAGWCGGGWAL | 0.705 ± 0.026
PPPPPPLPPPPL | 0.671 ± 0.019
CLSYSVCPFWEA | 0.807 ± 0.0087
KKKKKRKKKKEK | 0.683 ± 0.044
SSIEAGFSSIVI | 0.685 ± 0.04
SVINMLKPCNVI | 0.647 ± 0.05
SSPPSPSPPPPT | 0.678 ± 0.038
PVGWVEASLSPG | 0.721 ± 0.027
HLGIGTRVWEFG | 0.716 ± 0.061
LVLGRCWMSVPR | 0.535 ± 0.014
RWKLRLFLLVPT | 0.602 ± 0.044
GTGRGRAGARCK | 0.679 ± 0.018
LSVQVLSLRPRA | 0.688 ± 0.036
WFNRRISPISGI | 0.676 ± 0.059
DYCARQRLLDQF | 0.685 ± 0.11
NRKGNKHEKKYE | 0.691 ± 0.0039
APTGGTNVRRPE | 0.726 ± 0.024
LFFLRFSHFFVG | 0.605 ± 0.014
CSFCVLGPGLHL | 0.672 ± 0.047
SRRDRGHWSVRS | 0.6198 ± 0.0039
YDRFVNGKSPGM | 0.701 ± 0.06
GFPASVCGCMLW | 0.651 ± 0.047

Sequence | protein stability index
RYLQAGDYTKVY | 0.695 ± 0.1
SYQPQLDSKRVG | 0.63 ± 0.019
KSVVRLPHLPLE | 0.695 ± 0.02
VGPRGFYSFVGG | 0.665 ± 0.014
TKWAISRLHNSA | 0.64 ± 0.012
PVDDFVCLEVDS | 0.688 ± 0.061
ACWGCGVGRGEV | 0.814 ± 0.12
CTISHSGHSGST | 0.706 ± 0.058
ICFGCLSWAGSW | 0.554 ± 0.057
SYETLRTPARIA | 0.583 ± 0.043
NKKKKQRGKKQK | 0.725 ± 0.045
YLPSTAHSAHPP | 0.737 ± 0.045
VITAYHSLTYGA | 0.6878 ± 0.0038
PGPSPVLPPPPP | 0.633 ± 0.038
VGEVAGRWCGRG | 0.7 ± 0.025
HLLLGPRSPPSP | 0.661 ± 0.022
AGRRGVNGGGWG | 0.686 ± 0.039
EVLLVHWINPNA | 0.687 ± 0.047
SVFPHPYMVVRS | 0.598 ± 0.0092
LRGRYNDVRHGK | 0.708 ± 0.053
GGGGEAWGGLRW | 0.775 ± 0.055
LAASVTERPAGR | 0.703 ± 0.011
PPLSAPPPSPSP | 0.702 ± 0.065
CRKPRPLSFPLV | 0.701 ± 0.043
DRMYDELFTKCC | 0.619 ± 0.031

Sequence | protein stability index
PPSSGPPSPSSL | 0.578 ± 0.095
GWVPCGSWRVPG | 0.631 ± 0.038
RGFPALLPAPAC | 0.753 ± 0.12
IKKKKKKKKKRQ | 0.668 ± 0.027
VASFLRFRLPPQ | 0.71 ± 0.083
ASRRMGGHNALS | 0.705 ± 0.013
GCVHDLGVISCQ | 0.639 ± 0.011
SLSGSPIPFIRL | 0.764 ± 0.072
NIYDFQPPVSGH | 0.77 ± 0.052
SPRLPPPPPLPP | 0.651 ± 0.11
GGGGLKVVGGGS | 0.661 ± 0.032
GGVGGVRLVVSR | 0.684 ± 0.064
CIQRYSTAHPYH | 0.679 ± 0.06
GKKYDEAQLRKG | 0.709 ± 0.041
SKEKKRPDNKTF | 0.71 ± 0.048
SDEIKTLGLRKK | 0.683 ± 0.025
SGVLKHLRKESS | 0.641 ± 0.018
FPFWRLYNLELL | 0.492 ± 0.022
GQSVRELDSIKV | 0.652 ± 0.17
PLPYSPPLHVYP | 0.691 ± 0.023
RPSPPLLLPPAP | 0.71822 ± 0.00068
SRRRIENNKTEN | 0.695 ± 0.015
CLWSDQLFFYFG | 0.734 ± 0.025
ERSWQEKGVVRG | 0.699 ± 0.06
PPFPLSPLPPPL | 0.71 ± 0.0047

Sequence | protein stability index
VGSLCSRLGRRS | 0.765 ± 0.13
AVGTAPVFLWFG | 0.679 ± 0.0083
KKEISEKTNKKL | 0.69 ± 0.012
GAWWVHGRRVGR | 0.738 ± 0.046
IENVETSLKVVG | 0.651 ± 0.0081
SYSLGAGVCGVW | 0.682 ± 0.058
LPFRPWLPRSLI | 0.68 ± 0.059
RTTAPPIPLPSP | 0.729 ± 0.042
QTTKPRDPPLHP | 0.787 ± 0.13
PPPALPPPPRPP | 0.604 ± 0.065
CRTPQICASCLC | 0.59 ± 0.015
RTSPRMAPLRTH | 0.713 ± 0.067
GGVRAAGTGCGG | 0.642 ± 0.031
SPAPPSQFPSFA | 0.818 ± 0.11
FPALPPPLPQPP | 0.585 ± 0.031
DKERRSKNRERR | 0.698 ± 0.07
SSLPPPAPSFVP | 0.646 ± 0.1
NRSFIITRSVLS | 0.683 ± 0.029
VGSFVGSREGVW | 0.613 ± 0.029
GLLVAGGRNGDC | 0.719 ± 0.054
PEGLKKKKEKRI | 0.706 ± 0.049
SKKKTKKRRKKN | 0.698 ± 0.023
SRRVVDVGVIRV | 0.635 ± 0.02
LPPRSPLYPLPP | 0.613 ± 0.018
KWSETGQDGIER | 0.701 ± 0.081

Sequence | protein stability index
PPPPPHPALPVP | 0.734 ± 0.016
SKNEFKKIMKKY | 0.711 ± 0.083
TSQASIRDLTNK | 0.579 ± 0.016
FSGGCSVHGLIS | 0.612 ± 0.071
AWPGPKMCWVVK | 0.6294 ± 0.0023
SPPRPPPPSPPF | 0.768 ± 0.015
MFGCGSRGSGVV | 0.695 ± 0.093
PRPDSRTRLPRP | 0.661 ± 0.019
GRVIVCLSWGRL | 0.591 ± 0.019
HPVPSPSLRPPP | 0.716 ± 0.072
MTEFSESEGFIF | 0.735 ± 0.064
IRMEYVNTVINK | 0.642 ± 0.049
AKETSINKKALI | 0.6903 ± 0.0047
SASAILPWAIKL | 0.639 ± 0.075
PPPCRPSQFPPL | 0.742 ± 0.015
QQATLYCTTVRK | 0.682 ± 0.014
RPDTGPPRRNRE | 0.715 ± 0.031
RGVVRYVNGSRG | 0.568 ± 0.083
QTIRNLEVPLTG | 0.751 ± 0.017
PKKDNIQLQKPA | 0.694 ± 0.028
VGGGRGGVVRSG | 0.654 ± 0.1
RRRENAKENEIK | 0.812 ± 0.13
LFLPYLPPRPLL | 0.7642 ± 0.0064
VSLSPVFLGFYR | 0.706 ± 0.024
LSLLFLSLSLLR | 0.61 ± 0.042

Sequence | protein stability index
PPLQFFLYRSWV | 0.664 ± 0.044
ELVGGEGIGGGL | 0.581 ± 0.024
PPPPPPSLPYLL | 0.771 ± 0.042
VLGIVEKRGILR | 0.773 ± 0.11
GPGSWKWKSRRV | 0.6634 ± 0.0034
TQWRSRRHLKPQ | 0.72 ± 0.032
SFTLPPPLLSRT | 0.747 ± 0.008
LLPHCRPGSTAA | 0.692 ± 0.019
PPFASSPPFIFL | 0.705 ± 0.062
QEKWSKVSKKKE | 0.749 ± 0.19
PVLHSPHSLPPR | 0.734 ± 0.11
RGGGQAKAPAGD | 0.6566 ± 0.0011
FVHEHQPRHEST | 0.677 ± 0.028
WRVVTPPSVDHR | 0.677 ± 0.015
FASIESVENIEM | 0.709 ± 0.07
LYHARTIRQSAK | 0.701 ± 0.018
KKKKKKQQKKRK | 0.686 ± 0.039
SLLHSIPSSPPF | 0.729 ± 0.041
GGGVGRGGVEYG | 0.609 ± 0.01
TSCFIWGCACCR | 0.656 ± 0.058
PPHPPPTTVHLA | 0.7052 ± 0.002
QKGSGITPSPAR | 0.757 ± 0.12
LGTILGWFSICT | 0.59 ± 0.007
VAAFGGGRTNGV | 0.724 ± 0.024
EAIQDCERGPCW | 0.698 ± 0.0081

Sequence | protein stability index
GGGGGGLVGQGD | 0.673 ± 0.017
RLGAELGQLRCC | 0.66 ± 0.04
PRGHPPIPPPLP | 0.69 ± 0.035
RVPPPTSPPSPP | 0.694 ± 0.012
PPPLCLHAPFPP | 0.626 ± 0.045
QRKNQKKKHNRR | 0.7159 ± 0.0027
SSAPCLRIFVTR | 0.737 ± 0.062
DLTITFYKSGQL | 0.715 ± 0.032
GVFWGYGLRDGV | 0.731 ± 0.073
VHRRRVSVGGGA | 0.721 ± 0.05
LSSPSPSCSLPP | 0.701 ± 0.077
SGSSLCSVGWLV | 0.718 ± 0.044
RLGGSLQRGKVV | 0.734 ± 0.088
PPLRPAPPPPLS | 0.7 ± 0.12
ATPTQADRMPVT | 0.721 ± 0.1
GVTYEDFWGYCG | 0.797 ± 0.018
FFLPTLQLTPYL | 0.795 ± 0.19
PPPPLLPSPFPP | 0.653 ± 0.031
RRPPALDSLRHY | 0.661 ± 0.011
APLPHAASSLPA | 0.6982 ± 0.0046
GRGGGGVEPCFV | 0.669 ± 0.07

Source: the supplement of paper PMC10724198
